From patent US20220259593A1, “CONTROL OF MAMMALIAN GENE DOSAGE USING CRISPR” (The Regents of the University of California, priority 2019, published 2022) come the findings set out here.

Where a chain is given by its changes, count along the chain named.

In the data set the test system is K562 CRISPRi cells. Put plainly: Constant region variant library pooled growth screen, K562. It counts as cell-based, human. Particulars: sgRNA constant region variants. Put shortly:
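Cells were selected with puromycin for 2 days and then kept in RPMI-1640 spinner cultures, with duplicates handled separately. Targeting sequences comprised 3 sgRNAs per essential gene for 10 genes plus six non-targeting controls. Activities were normalized against pairing with the unmodified scaffold.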

[1] abbreviates: activity relative to the unmodified constant region cr995.

B1: cr605 (nucleic acid)
guide: GTTTAAGAGCTAAGCTGGAAACAGCATAGCAAGTTTAAATAAGGATATTCCGTTATCAACTTGAAAAAGTGGCACCCAGTGGGTGCT
modifications: listed as DNA, chemistry not fully specified
In turn, B1 gave a Mean relative activity under setting [1] of 0.1839.

B2: cr311 (nucleic acid)
guide: B1 guide with A45C, A47T, T48G, C57A, A58T, C77G, G81C
modifications: listed as DNA, chemistry not fully specified
Under setting [1], B2 returned a Mean relative activity of 0.179.

B3: cr683 (nucleic acid)
guide: B1 guide with A45C, T48G, C50T, C57G, C77G, G81C
modifications: listed as DNA, chemistry not fully specified
Under setting [1], B3 registered a Mean relative activity of 0.1568.

B4: cr544 (nucleic acid)
guide: B1 guide with G33C, A45C, T48G, T62C, A67G, C77G, G81C
modifications: listed as DNA, chemistry not fully specified
For B4, under setting [1], the Mean relative activity was determined as 0.1605.

B5: cr185 (nucleic acid)
guide: B1 guide with A45C, T48G, C77G, G81A
modifications: listed as DNA, chemistry not fully specified
Regarding B5, the Mean relative activity under setting [1] was determined as 0.1755.

B6: cr230 (nucleic acid)
guide: B1 guide with G29A, A45C, T48G, G52A, A66C, C77G, G81C
modifications: listed as DNA, chemistry not fully specified
Regarding B6, under setting [1], the Mean relative activity is 0.1598.

B7: cr979 (nucleic acid)
guide: B1 guide with A45C, T48G, T53G, A58T, C77G, G81C
modifications: listed as DNA, chemistry not fully specified
Under setting [1], B7 came in with a Mean relative activity of 0.1765.

B8: cr047 (nucleic acid)
guide: B1 guide with A5T, A8T, A45C, T48G, C77G, G81C
modifications: listed as DNA, chemistry not fully specified
As for B8, the Mean relative activity under setting [1] amounted to 0.1686.

B9: cr063 (nucleic acid)
guide: B1 guide with G1A, A5T, A45C, T48G, C77G, G81C
modifications: listed as DNA, chemistry not fully specified
B9 registered a Mean relative activity under setting [1] of 0.1565.

B10: cr826 (nucleic acid)
guide: B1 guide with G33T, A45C, T48G, T49C, A55T, C77G, G81C
modifications: listed as DNA, chemistry not fully specified
Under setting [1], B10 displayed a Mean relative activity of 0.1633.

B11: cr618 (nucleic acid)
guide: B1 guide with A39G, A45C, T48G, C77G, G81C
modifications: listed as DNA, chemistry not fully specified
B11: the Mean relative activity under setting [1] is given as 0.1571.

B12: cr452 (nucleic acid)
guide: B1 guide with G33A, A45C, T48G, C57A, C77G, G81C
modifications: listed as DNA, chemistry not fully specified
The molecule B12 showed a Mean relative activity under setting [1] of 0.1813.

B13: cr447 (nucleic acid)
guide: B1 guide with T34C, A45C, T48G, C77A, G81T
modifications: listed as DNA, chemistry not fully specified
Under setting [1], B13 displayed a Mean relative activity of 0.1616.

B14: cr029 (nucleic acid)
guide: B1 guide with A5C, A8G, A45C, T48G, C77G, G81C
modifications: listed as DNA, chemistry not fully specified
In turn, B14 registered a Mean relative activity under setting [1] of 0.1663.

B15: cr812 (nucleic acid)
guide: B1 guide with A45C, T48C, C77G, G81C
modifications: listed as DNA, chemistry not fully specified
Take B15: the Mean relative activity under setting [1] is recorded as 0.1766.

B16: cr476 (nucleic acid)
guide: B1 guide with A45C, T48G, G72C, C73G, C77G, G81C, G85C, C86G
modifications: listed as DNA, chemistry not fully specified
Take B16: the Mean relative activity (activity relative to the original, un-modified constant region cr995) amounted to 1.039.
